For experiment [1], the target named is HLA-C*05:01. The experiment is described as follows: IEDB peptide-MHC binding, purified MHC/direct/fluorescence; filed as Kd, often an IC50 or EC50 that approximates it; ≥ and ≤ were set here for values at or beyond the usual limits of such assays. The conditions noted are these: source organism: Vaccinia virus Copenhagen.
Experiment [2] addresses HLA-A*02:01. Kind of experiment: IEDB peptide-MHC binding, purified MHC/competitive/fluorescence; filed as Kd, often an IC50 or EC50 that approximates it; ≥ and ≤ were set here for values at or beyond the usual limits of such assays.
The target in experiment [3] is HLA-A*02:01. The experiment is described as follows: IEDB peptide-MHC binding, purified MHC/direct/fluorescence; filed as Kd, often an IC50 or EC50 that approximates it; ≥ and ≤ were set here for values at or beyond the usual limits of such assays. The conditions noted are these: source organism: Camelpox virus M-96.
For experiment [4], the target named is HLA-A*69:01. Described as above. The conditions noted are these: source organism: Camelpox virus M-96.
Experiment [5] deals with HLA-A*01:01. The experiment is described as follows: IEDB peptide-MHC binding, purified MHC/competitive/fluorescence; filed as Kd, often an IC50 or EC50 that approximates it; ≥ and ≤ were set here for values at or beyond the usual limits of such assays.
The target of experiment [6] is HLA-C*03:03. The experiment is described as follows: IEDB peptide-MHC binding, purified MHC/direct/fluorescence; filed as Kd, often an IC50 or EC50 that approximates it; ≥ and ≤ were set here for values at or beyond the usual limits of such assays.
Experiment [7] has as its target HLA-B*57:01. Kind of experiment: IEDB peptide-MHC binding, purified MHC/competitive/radioactivity; filed as Kd, often an IC50 or EC50 that approximates it; ≥ and ≤ were set here for values at or beyond the usual limits of such assays.
Experiment [8] concerns the target HLA-B*58:01. Described as above.
Experiment [9] deals with HLA-B*07:02. The experiment is described as follows: IEDB peptide-MHC binding, purified MHC/direct/fluorescence; filed as Kd, often an IC50 or EC50 that approximates it; ≥ and ≤ were set here for values at or beyond the usual limits of such assays. The following applies: source organism: Mammarenavirus juninense.
Experiment [10] concerns the target HLA-C*12:03. The experiment is described as above.
Experiment [11] has as its target HLA-A*68:02. The experiment is described as follows: IEDB peptide-MHC binding, purified MHC/competitive/radioactivity; filed as Kd, often an IC50 or EC50 that approximates it; ≥ and ≤ were set here for values at or beyond the usual limits of such assays.
For experiment [12], the target named is HLA-A*11:01. Kind of experiment: IEDB peptide-MHC binding, purified MHC/competitive/fluorescence; ≥ and ≤ were set here for values at or beyond the usual limits of such assays.
Experiment [13] has as its target HLA-A*68:02. The experiment is described as follows: IEDB peptide-MHC binding, purified MHC/competitive/fluorescence; filed as Kd, often an IC50 or EC50 that approximates it; ≥ and ≤ were set here for values at or beyond the usual limits of such assays. The following applies: source organism: Burkholderia mallei GB8 horse 4.
Experiment [14] deals with HLA-B*15:01. Kind of experiment: IEDB peptide-MHC binding, purified MHC/direct/fluorescence; filed as Kd, often an IC50 or EC50 that approximates it; ≥ and ≤ were set here for values at or beyond the usual limits of such assays. The conditions noted are these: source organism: Mycobacterium tuberculosis C.
Experiment [15] addresses HLA-B*35:01. Kind of experiment: IEDB peptide-MHC binding, purified MHC/competitive/fluorescence; filed as Kd, often an IC50 or EC50 that approximates it; ≥ and ≤ were set here for values at or beyond the usual limits of such assays.
The target of experiment [16] is HLA-B*18:01. Kind of experiment: IEDB peptide-MHC binding, purified MHC/direct/fluorescence; filed as Kd, often an IC50 or EC50 that approximates it; ≥ and ≤ were set here for values at or beyond the usual limits of such assays. The following applies: source organism: Francisella tularensis subsp. holarctica LVS.
In experiment [17] the target is HLA-B*40:01. The experiment is described as above. The conditions noted are these: source organism: Francisella tularensis subsp. holarctica LVS.
For experiment [18], the target named is HLA-A*03:01. The experiment is described as follows: IEDB peptide-MHC binding, purified MHC/competitive/fluorescence; filed as Kd, often an IC50 or EC50 that approximates it; ≥ and ≤ were set here for values at or beyond the usual limits of such assays. The following applies: source organism: Escherichia coli.
Experiment [19] addresses HLA-B*15:01. The description is as above. The following applies: source organism: Escherichia coli.
For experiment [20], the target named is HLA-B*53:01. The experiment is described as follows: IEDB peptide-MHC binding, purified MHC/competitive/radioactivity; filed as Kd, often an IC50 or EC50 that approximates it; ≥ and ≤ were set here for values at or beyond the usual limits of such assays.
Experiment [21] concerns the target HLA-A*02:01. The description is as above. The conditions noted are these: source organism: Vaccinia virus WR.
In experiment [22] the target is HLA-A*02:02. The experiment is described as above. The conditions noted are these: source organism: Vaccinia virus WR.
Experiment [23] deals with HLA-A*02:03. Described as above. The conditions noted are these: source organism: Vaccinia virus WR.
In experiment [24] the target is HLA-A*02:06. The description is as above. The following applies: source organism: Vaccinia virus WR.
Experiment [25] addresses HLA-A*03:01. The experiment is described as above. The following applies: source organism: Vaccinia virus WR.
Experiment [26] addresses HLA-A*11:01. Described as above. The following applies: source organism: Vaccinia virus WR.
The target in experiment [27] is HLA-A*31:01. The experiment is described as above. The following applies: source organism: Vaccinia virus WR.
The target in experiment [28] is HLA-A*33:01. The experiment is described as above. The following applies: source organism: Vaccinia virus WR.
In experiment [29] the target is HLA-A*68:01. The description is as above. The conditions noted are these: source organism: Vaccinia virus WR.
Experiment [30] deals with HLA-B*07:02. The experiment is described as above. The following applies: source organism: Vaccinia virus WR.
Experiment [31] addresses HLA-B*35:01. Described as above. The conditions noted are these: source organism: Vaccinia virus WR.
Experiment [32] concerns the target HLA-B*51:01. The experiment is described as above. The conditions noted are these: source organism: Vaccinia virus WR.
Experiment [33] has as its target HLA-B*54:01. The description is as above. The conditions noted are these: source organism: Vaccinia virus WR.
Experiment [34] concerns the target HLA-B*15:17. The experiment is described as follows: IEDB peptide-MHC binding, purified MHC/direct/fluorescence; filed as Kd, often an IC50 or EC50 that approximates it; ≥ and ≤ were set here for values at or beyond the usual limits of such assays. The following applies: source organism: Giardia lamblia ATCC 50803.
Experiment [35] has as its target HLA-B*57:01. The description is as above. The conditions noted are these: source organism: Giardia lamblia ATCC 50803.
The target in experiment [36] is HLA-B*58:01. The description is as above. The following applies: source organism: Giardia lamblia ATCC 50803.
Experiment [37] concerns the target HLA-B*46:01. The experiment is described as follows: IEDB peptide-MHC binding, purified MHC/competitive/fluorescence; filed as Kd, often an IC50 or EC50 that approximates it; ≥ and ≤ were set here for values at or beyond the usual limits of such assays. The following applies: source organism: Giardia lamblia ATCC 50803.
The target in experiment [38] is HLA-A*30:01. Kind of experiment: IEDB peptide-MHC binding, purified MHC/competitive/radioactivity; filed as Kd, often an IC50 or EC50 that approximates it; ≥ and ≤ were set here for values at or beyond the usual limits of such assays. The conditions noted are these: source organism: Dengue virus 4 Philippines/H241/1956.
[39] abbreviates: source organism: Vaccinia virus Copenhagen.
[40] abbreviates: source organism: Escherichia coli F11.
[41] abbreviates: source organism: Dengue virus 1 Singapore/S275/1990.
Setting [42] is: source organism: Dengue virus 1 Brazil/97-11/1997.
The mark [43] stands for this setting: source organism: Dengue virus 2 Jamaica/1409/1983.
[44] abbreviates: source organism: Dengue virus 3 Martinique/1243/1999.
Where [45] appears, read: source organism: Vaccinia virus WR.
Where [46] appears, read: source organism: Giardia lamblia ATCC 50803.
Setting [47] is: source organism: Dengue virus 4 Philippines/H241/1956.
Setting [48] is: source organism: Dengue virus 2 Peru/IQT2913/1996.

Regarding YLDYDTIYV, the figures for the Kd in experiment [1] and in experiment [2] (setting [39]) were not above 1 nM and 0.4 nM, respectively.

Consider YFDDVTAFL, for which the Kd in experiment [3] was 5 nM; in [4], 428 nM; in experiment [1] it was 14 nM.

Turning to ITDITKYLY, in experiment [5] (source organism: Bacillus cereus G9241), the Kd was found to be 2.1 nM.

On to RTDAWSYPV, for which the values for the Kd in experiment [6] (setting [40]), in experiment [5] (setting [40]) and in experiment [2] (setting [40]) were 1460 nM, 13.5 nM and 0.8 nM, respectively.

For the sequence LSDICSGLQ, the Kd in experiment [5] (source organism: Escherichia coli O139:H28 str. E24377A) is not below 20000 nM.

For ASSVLLWMAS, the Kd amounted to 15100 nM in experiment [7] (setting [41]) and 690 nM in [8] (setting [41]).

For KASQEGPLPE, the Kd in experiment [7] (setting [42]) was determined as 894 nM; in [8] (setting [42]), 669 nM.

AAVKAGASI: the values for the Kd in [9] and in experiment [6] (source organism: Mammarenavirus machupoense) were 2060 nM and not above 1 nM, respectively.

For the sequence YLYASFCTV, the results for the Kd in experiment [10] (setting [39]) and in experiment [2] (setting [39]) were 34 nM and 3.2 nM, respectively.

As for STSTWVTYGT, the Kd is 72.8 nM in experiment [11] (setting [43]), 130 nM in experiment [7] (setting [43]) and 1120 nM in [8] (setting [43]).

Consider VASVNMVSRL, for which the Kd was determined as 2240 nM in [7] (setting [44]) and 1050 nM in [8] (setting [44]).

In the case of DRSDGYFLK, the IC50 in experiment [12] (setting [39]) was 31800 nM.

The sequence STASSWSY displayed a Kd in experiment [5] (source organism: Influenza A virus (A/swine/Ohio/24366/2007(H1N1))) not below 20000 nM.

Take WAWPFAAVL: the Kd in experiment [10] (source organism: Burkholderia mallei GB8 horse 4) is not above 1 nM; in experiment [13], 53.5 nM.

On to EQFWCGIPY, for which the Kd in experiment [14] turned out to be 78.8 nM; in experiment [15] (source organism: Mycobacterium tuberculosis C), 0.2 nM.

MEVGNTVAF: the values for the Kd in experiment [16], in experiment [17] and in experiment [15] (source organism: Francisella tularensis subsp. tularensis FSC198) were not above 1 nM, 1.6 nM and 558 nM, respectively.

As to ITDYIVGYY, the Kd in [5] (source organism: Escherichia coli) is 3 nM; in [18] it was not below 20000 nM; in experiment [19], 2400 nM.

Regarding MGITAEWLW, the Kd in experiment [20] (setting [44]) was found to be 6.6 nM; in experiment [7] (setting [44]) it was 8.74 nM; in experiment [8] (setting [44]) it was 0.436 nM.

Consider VLPHLCLDYK, for which the Kd is not below 69400 nM in [21]; not below 70000 nM in experiment [22]; not below 70400 nM in experiment [23]; not below 20200 nM in experiment [24]; 26.1 nM in experiment [25]; 194 nM in [26]. Further, the Kd in experiment [27] was 1760 nM; in experiment [28] it was 19300 nM; in experiment [29] it was 1320 nM; in [11] (setting [45]), not below 69800 nM; in experiment [30] it was not below 69600 nM; in [31], not below 69900 nM. For the same sequence, the Kd was not below 69600 nM in experiment [32], not below 69900 nM in experiment [20] (setting [45]) and not below 69900 nM in [33].

Regarding IASPILFPF, the Kd in [34] was 1.5 nM; in [35], 14.8 nM; in experiment [36], 3 nM; in experiment [6] (setting [46]), 3 nM; in [10] (setting [46]), 594 nM; in [37] it was 92.3 nM.

Turning to ATLEDDRER, in experiment [12] (source organism: Variola virus), the IC50 turned out to be 49400 nM.

As for GASKRSWPLN, the Kd in [38] came out at 257 nM; in experiment [7] (setting [47]), 106 nM; in experiment [8] (setting [47]) it was 763 nM.

As to ESWEEIPYLG, the values for the Kd in [7] (setting [48]) and in experiment [8] (setting [48]) were 78.3 nM and 90.3 nM, respectively.

As to VASVELPNSL, the Kd was 4530 nM in experiment [7] (setting [42]) and 149 nM in experiment [8] (setting [42]).

In experiment [10] (source organism: Homo sapiens), FIFPASKVY yielded a Kd not above 1 nM.
